Results: paper PMC3808276 (2013)

What was measured:
CXCL10 = CXCL10 (Homo sapiens, UniProt P02778); experiment: ELISA
CXCL11 = biological target: T1, CXCL11 (Homo sapiens, UniProt O14625); experiment: ELISA
T1 chain: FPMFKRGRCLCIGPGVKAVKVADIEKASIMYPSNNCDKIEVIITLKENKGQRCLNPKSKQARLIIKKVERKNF

CXCL10, sequence (P02778 22-94): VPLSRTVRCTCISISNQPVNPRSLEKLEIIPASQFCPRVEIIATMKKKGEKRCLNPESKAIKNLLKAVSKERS

Kd (CXCL10): 68 nM | Kd (CXCL11): 67 nM
B1: Fg β15-66 15-66 (protein)
chain: MKHLLLLLLCVFLVKSQGVNDNEEGFFSARGHRPLDKKREEAPSLRPAPPPI
